Molecular target: recombinant human TNFα (RDI) (human) (UniProt P01375)
Assay: cell-based or functional assay

recombinant human TNFα (RDI) (human), sequence (P01375 77-233 limits assumed): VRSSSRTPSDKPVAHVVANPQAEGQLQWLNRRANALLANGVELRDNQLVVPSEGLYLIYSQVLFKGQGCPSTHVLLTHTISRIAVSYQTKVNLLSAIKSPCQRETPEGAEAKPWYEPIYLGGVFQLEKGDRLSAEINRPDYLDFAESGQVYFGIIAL

B1: MMP7 (enzyme, UniProt P09237 95-267, looked up, species assumed)
Matrilysin: YSLFPNSPKWTSKVVTYRIVSYTRDLPHITVDRLVSKALNMWGKEIPLHFRKVVWGTADIMIGFARGAHGDSYPFDGPGNTLAHAFAPGTGLGGDAHFDEDERWTDGSSLGINFLYAATHELGHSLGMGHSSDPNAVMYPTYGNGDPQNFKLSQDDIKGIQKLYGKRSNSRKK
survival of L929 cells at the dilution equivalent to ˜600 pg/ml TNFα after digestion: 40 % survival

Source: patent US20040081647A1
